Assay results taken from ChEMBL document CHEMBL1151754, “Structural and mechanistic studies of mofegiline inhibition of recombinant human monoamine oxidase B” (J Med Chem, 2008).

Substrate: NCCCCc1ccccc1
Test: Activity of human MAOB

B1: Amine oxidase [flavin-containing] B (Homo sapiens) (protein)
chain: MSNKCDVVVVGGGISGMAAAKLLHDSGLNVVVLEARDRVGGRTYTLRNQKVKYVDLGGSYVGPTQNRILRLAKELGLETYKVNEVERLIHHVKGKSYPFRGPFPPVWNPITYLDHNNFWRTMDDMGREIPSDAPWKAPLAEEWDNMTMKELLDKLCWTESAKQLATLFVNLCVTAETHEVSALWFLWYVKQCGGTTRIISTTNGGQERKFVGGSGQVSERIMDLLGDRVKLERPVIYIDQTRENVLVETLNHEMYEAKYVISAIPPTLGMKIHFNPPLPMMRNQMITRVPLGSVIKCIVYYKEPFWRKKDYCGTMIIDGEEAPVAYTLDDTKPEGNYAAIMGFILAHKARKLARLTKEERLKKLCELYAKVLGSLEALEPVHYEEKNWCEEQYSGGCYTTYFPPGILTQYGRVLRQPVDRIYFAGTETATHWSGYMEGAVEAGERAAREILHAMGKIPEDEIWQSEPESVDVPAQPITTTFLERHLPSVPGLLRLIGLTTIFSATALGFLAHKRGLLVRV
kcat: 1.82 s⁻¹
